# B1: bemarituzumab (antibody, human IgG1, kappa, V domains shown)
# VH: QVQLVQSGAEVKKPGSSVKVSCKASGYIFTTYNVHWVRQAPGQGLEWIGSIYPDNGDTSYNQNFKGRATITADKSTSTAYMELSSLRSEDTAVYYCARGDFAYWGQGTLVTVSS
# VL: DIQMTQSPSSLSASVGDRVTITCKASQGVSNDVAWYQQKPGKAPKLLIYSASYRYTGVPSRFSGSGSGTDFTFTISSLQPEDIATYYCQQHSTTPYTFGQGTKLEIKR
# modifications: afucosylated: glycan at Asn297 (EU numbering) lacks core fucose
# Experiments:
# [1] = target: FGFR2 isoform FGFR2-IIIb (FGFR2b), on the surface of cancer cell lines (UniProt P21802); assay: flow cytometry on KATOIII cells (gastric cancer, positive control), detected with APC anti-human IgG1
# [2] = target: FGFR2 isoform FGFR2-IIIb (FGFR2b), on the surface of cancer cell lines (UniProt P21802); assay: flow cytometry on SNU16-Luc cells (gastric cancer, positive control), detected with APC anti-human IgG1
# [3] = target: FGFR2 isoform FGFR2-IIIb (FGFR2b), on the surface of cancer cell lines (UniProt P21802); assay: flow cytometry on HCC1806 cells (TNBC), detected with APC anti-human IgG1
# [4] = target: FGFR2 isoform FGFR2-IIIb (FGFR2b), on the surface of cancer cell lines (UniProt P21802); assay: flow cytometry on EPLC-272H cells (squamous lung cancer), detected with APC anti-human IgG1
# [5] = target: FGFR2 isoform FGFR2-IIIb (FGFR2b), on the surface of cancer cell lines (UniProt P21802); assay: flow cytometry on BT20 cells (TNBC), detected with APC anti-human IgG1
# [6] = target: FGFR2 isoform FGFR2-IIIb (FGFR2b), on the surface of cancer cell lines (UniProt P21802); assay: flow cytometry on NCIH2170 cells (squamous lung cancer), detected with APC anti-human IgG1
# [7] = target: FGFR2 isoform FGFR2-IIIb (FGFR2b), on the surface of cancer cell lines (UniProt P21802); assay: flow cytometry on HCC38 cells (TNBC), detected with APC anti-human IgG1
# [8] = target: FGFR2 isoform FGFR2-IIIb (FGFR2b), on the surface of cancer cell lines (UniProt P21802); assay: flow cytometry on HCC1937 cells (TNBC), detected with APC anti-human IgG1
# [9] = target: FGFR2 isoform FGFR2-IIIb (FGFR2b), on the surface of cancer cell lines (UniProt P21802); assay: flow cytometry on SW900 cells (squamous lung cancer), detected with APC anti-human IgG1
# [10] = target: FGFR2 isoform FGFR2-IIIb (FGFR2b), on the surface of cancer cell lines (UniProt P21802); assay: flow cytometry on HCC1187 cells (TNBC), detected with APC anti-human IgG1
# [11] = target: FGFR2 isoform FGFR2-IIIb (FGFR2b), on the surface of cancer cell lines (UniProt P21802); assay: flow cytometry on HCC1569 cells (TNBC), detected with APC anti-human IgG1
# [12] = target: FGFR2 isoform FGFR2-IIIb (FGFR2b), on the surface of cancer cell lines (UniProt P21802); assay: flow cytometry on SNU16 cells (gastric cancer, positive control), detected with APC anti-human IgG1
# [13] = target: FGFR2 isoform FGFR2-IIIb (FGFR2b), on the surface of cancer cell lines (UniProt P21802); assay: flow cytometry on LC1F cells (squamous lung cancer), detected with APC anti-human IgG1
# [14] = target: FGFR2 isoform FGFR2-IIIb (FGFR2b), on the surface of cancer cell lines (UniProt P21802); assay: flow cytometry on LUDLU1 cells (squamous lung cancer), detected with APC anti-human IgG1
# [15] = target: FGFR2 isoform FGFR2-IIIb (FGFR2b), on the surface of cancer cell lines (UniProt P21802); assay: flow cytometry on KNS-62 cells (squamous lung cancer), detected with APC anti-human IgG1
# [16] = target: FGFR2 isoform FGFR2-IIIb (FGFR2b), on the surface of cancer cell lines (UniProt P21802); assay: flow cytometry on HARA cells (squamous lung cancer), detected with APC anti-human IgG1
# [17] = target: FGFR2 isoform FGFR2-IIIb (FGFR2b), on the surface of cancer cell lines (UniProt P21802); assay: flow cytometry on SW1573 cells (squamous lung cancer), detected with APC anti-human IgG1
binder,measurement,setting,value
B1,Mean Fluorescence Intensity by FACS,[1],20400 MFI
same,Mean Fluorescence Intensity by FACS,[2],7960 MFI
same,Mean Fluorescence Intensity by FACS,[3],401 MFI
same,Mean Fluorescence Intensity by FACS,[4],759 MFI
same,Mean Fluorescence Intensity by FACS,[5],252 MFI
same,Mean Fluorescence Intensity by FACS,[6],153 MFI
same,Mean Fluorescence Intensity by FACS,[7],346 MFI
same,Mean Fluorescence Intensity by FACS,[8],690 MFI
same,Mean Fluorescence Intensity by FACS,[9],10.3 MFI
same,Mean Fluorescence Intensity by FACS,[10],-6 MFI
same,Mean Fluorescence Intensity by FACS,[11],1360 MFI
same,Mean Fluorescence Intensity by FACS,[12],7800 MFI
same,Mean Fluorescence Intensity by FACS,[13],123 MFI
same,Mean Fluorescence Intensity by FACS,[14],638 MFI
same,Mean Fluorescence Intensity by FACS,[15],572 MFI
same,Mean Fluorescence Intensity by FACS,[16],401 MFI
same,Mean Fluorescence Intensity by FACS,[17],-1.2 MFI

# Source: patent US20250243284A1
